Numbering of substitutions follows the chain as printed. Like-named read-outs stand apart in the source and are kept apart here.
T1: human CX3CR1 (human, UniProt P49238 1-355)
T1 sequence: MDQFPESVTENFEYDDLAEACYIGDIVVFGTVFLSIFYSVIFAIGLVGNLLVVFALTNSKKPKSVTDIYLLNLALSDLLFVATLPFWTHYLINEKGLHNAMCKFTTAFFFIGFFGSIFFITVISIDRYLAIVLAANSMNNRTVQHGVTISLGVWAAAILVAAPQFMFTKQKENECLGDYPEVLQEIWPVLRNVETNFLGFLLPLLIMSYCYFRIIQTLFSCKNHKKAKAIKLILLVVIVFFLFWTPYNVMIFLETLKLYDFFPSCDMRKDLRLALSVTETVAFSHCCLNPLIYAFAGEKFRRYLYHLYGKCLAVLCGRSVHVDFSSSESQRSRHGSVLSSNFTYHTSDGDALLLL

T2: cynomolgus CX3CR1 (cynomolgus, UniProt P49238 1-355 (human entry))
T2 construct: transiently expressed on HEK293T cells; also called cyCX3CR1; cyno CX3CR1
T2 chain: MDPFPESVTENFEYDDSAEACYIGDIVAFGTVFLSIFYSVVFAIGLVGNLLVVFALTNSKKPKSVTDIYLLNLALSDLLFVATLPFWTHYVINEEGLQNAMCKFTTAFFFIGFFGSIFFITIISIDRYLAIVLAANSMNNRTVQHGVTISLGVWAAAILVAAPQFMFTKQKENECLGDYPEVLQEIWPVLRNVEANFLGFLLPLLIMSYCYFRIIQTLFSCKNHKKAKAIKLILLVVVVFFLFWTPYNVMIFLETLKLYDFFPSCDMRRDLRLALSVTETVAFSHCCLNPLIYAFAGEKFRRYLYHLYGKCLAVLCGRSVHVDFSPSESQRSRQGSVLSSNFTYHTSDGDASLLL

B1: CX3CR1BIIPMP11H11 (VHH)
VHH: EVQLVESGGGLVQAGGSLRLSCVASGRTFSSYAMGWFRQAPGKERAFVAGISGSASRKYYADSVKGRFTVSRDNARNTVYLQMNSLKPEDTAVYYCAASNSYPKVQFDYYGQGTQVTVSS
notes: family 9; also called CX3CR1BII11H11; not shown: C-terminal c-myc and His6 tags
B2: CX3CR1BIIPMP66B02 (VHH)
VHH: EVQLVESGGGSVQAGESLRLSCAASGSIFSSNAMAWYRQAPGKRRDLVAAINSVGVTKYADSVKGRFTISRDNAKNTVYLQMNSLKPEDTAVYYCTSDPRRGWDTRYWGQGTQVTVSS
modifications: alexa647 label where used as labeled competitor (Table 23)
notes: also called CX3CR1BII66B02; C100CX3CR1BII66B02; not shown: C-terminal c-myc and His6 tags
B3: CX3CR1BII016 (VHH)
chain: EVQLVESGGGSVQAGESLRLSCAASGSIFSSNAMAWYRQAPGKQRDLVAVINSVGITKYADSVKGRFTISGDNAKNTVYLQMNSLKPEDTAVYYCTSDARRGWDTRYWGQGTQVTVSSGGGGSGGGGSGGGGSGGGGSGGGGSGGGGSGGGGSEVQLVESGGGSVQAGESLRLSCAASGSIFSSNAMAWYRQAPGKQRDLVAVINSVGITKYADSVKGRFTISGDNAKNTVYLQMNSLKPEDTAVYYCTSDARRGWDTRYWGQGTQVTVSS
notes: expressed in E. coli as described for the monovalent VHHs
B4: CX3CR1BII018 (VHH)
chain: B3 chain with Q44R, V50A, I56V, G71R, A99P, Q197R, V203A, I209V, G224R, A252P
modifications: A647 label where used as labeled competitor (Example 14)
notes: expressed in E. coli as described for the monovalent VHHs; also called A647-018; A647 labeled CX3CR1BII018
B5: CX3CR1BII019 (VHH)
chain: B3 chain with V2M, V50L, G71R, A99G, V155M, V203L, G224R, A252G
notes: as for B3
B6: CX3CR1BII020 (VHH)
chain: B3 chain with V50G, G71R, V78A, A99P, Q113L, V203G, G224R, V231A, A252P, Q266L
notes: as for B3
B7: CX3CR1BII017 (VHH)
chain: EVQLVESGGGSVQAGESLRLSCAASGSIFSSNAMAWYRQAPPGKQRDLVALINSVGITKYADSVKGRFTISSDNAKNTVYLEMNSLKPEDTAVYYCTSDGRRGWDTRYWGQGTQVTVSSGGGGSGGGGSGGGGSGGGGSGGGGSGGGGSGGGGSEVQLVESGGGSVQAGESLRLSCAASGSIFSSNAMAWYRQAPPGKQRDLVALINSVGITKYADSVKGRFTISSDNAKNTVYLEMNSLKPEDTAVYYCTSDGRRGWDTRYWGQGTQVTVSS
notes: as for B3

Assays:
human CX3CR1 [1] = molecular target: T1, human CX3CR1; assay: cell-based or functional assay
human CX3CR1 [2] = molecular target: T1, human CX3CR1; assay: A647-fractalkine competition FACS, BA/F3-huCX3CR1
Excerpt: (§1) Periplasmic extracts were screened in a human CX3CR1/human Fractalkine FACS competition assay to assess the blocking capacity of the expressed VHHs. Human CX3CR1 was presented on CHO cells overexpressing CX3CR1. Both a setup using cells harvested from an actively growing culture and a setup using frozen cells was used. As a detection reagent labeled fractalkine was used (R&D Systems, Minneapolis, Minn., USA) labeled with alexa647 (A647-Fractalkine) at a degree of labeling of 1. To setup the assay, first a titration series of the labeled fractalkine was performed on the CHO-huCX3CR1 cells in order to determine the EC50 value for binding. Initially screening was performed at a higher concentration of fractalkine (3 nM) to increase the assay robustness. To increase the sensitivity of the screening to a maximum, the EC30 concentration (1 nM) was chosen for subsequent screening. In brief 50 μl of periplasmic extract was added to 6 nM labeled fractalkine (50 μ;) and 200 000 CHO-huCX3CR1 cells. After one hour incubation at 4 C, cells were washed three times before read out was performed on a FACS Array (Becton Dickinson). First a gate was set on the intact cells as determined from the scatter profile. Next, dead cells were gated out by their fluorescence profile from the PI stain (Sigma, St Louis, US). The fluorescence profile from the alexa647 label was determined for each sample and used for calculation of blocking capacity. As controls, conditions were taken along where there was no VHH present in the peri extract or a known irrelevant VHH and samples were included where excess cold fractalkine was included. For each sample the percentage block was determined using the control samples to determine the assay window.
(§2) The blocking capacity towards the ligand fractalkine of the VHHs was evaluated in a human CX3CR1 competition FACS as outlined in Example 4. Either CHO-huCX3CR1 cells, BA/F3-huCX3CR1 cells or transiently transfected HEK293T cells were used. The amount of labeled ligand used in the different competition setups was also varied. The IC₅₀ values for VHHs blocking the interaction of human fractalkine to human CX3CR1 are depicted in Table 19.

human CX3CR1 [3] = molecular target: T1, human CX3CR1; assay: A647-fractalkine competition FACS, CHO-huCX3CR1
Excerpt: as §1, §2

human CX3CR1 [4] = molecular target: T1, human CX3CR1; assay: FACS binding on human CX3CR1 cells, anti-c-myc detection
Experimental: Initially, a FACS based binding setup was used to evaluate the cynomolgus cross reactivity. For this, the VHHs were incubated with the respective cells for 30 minutes at 4° C. followed by three wash steps and subsequently incubated with the detection reagents. As detection, a mouse anti-cmyc antibody (Serotec, MCA2200) followed by a goat anti-mouse antibody coupled to PE (Jackson 115-116-071) was used, each incubation for 30 minutes at 4° C., followed by three wash steps.

human CX3CR1 [5] = molecular target: T1, human CX3CR1; assay: competition FACS, BA/F3-huCX3CR1; competitor alexa647-labeled 66B02
Excerpt: A competitive binding experiment was setup in order to determine whether the VHHs bind overlapping epitopes on CX3CR1. For this, the VHH 66B02 labeled with alexa647 was used in a competition FACS on the BA/F3 cells expressing huCX3CR1. Representative VHHs from the three functional families were used as competitors for the binding of the labeled 66B02.

human CX3CR1 [6] = molecular target: T1, human CX3CR1; assay: periplasmic extract, A647-fractalkine competition FACS, CHO-huCX3CR1
Excerpt: as §1

human CX3CR1 [7] = molecular target: T1, human CX3CR1; assay: fractalkine competition FACS
cynomolgus CX3CR1 [8] = molecular target: T2, cynomolgus CX3CR1; assay: A647-fractalkine competition FACS, HEK293T cynomolgus CX3CR1
Excerpt: as §1
(§3) For later identified VHHs, a human Fractalkine competition FACS was set up using human or cynomolgus CX3CR1 expressed in HEK293T cells. Both the human and the cynomolgus receptor was transiently transfected in HEK293T cells and transfections were matched by the binding of the labeled ligand, human fractalkine. The competition was evaluated using the EC30 concentration of fractalkine and as such obtained IC50 values are a good estimate of the Ki value, a measure for affinity (Table 22). The experiment was performed as described in Example 4.

human CX3CR1 [9] = molecular target: T1, human CX3CR1; assay: fractalkine competition FACS; remark: listed apart in the source
human CX3CR1 [10] = molecular target: T1, human CX3CR1; assay: A647-fractalkine competition FACS, HEK293-huCX3CR1
Excerpt: as §1, §2

human CX3CR1 [11] = molecular target: T1, human CX3CR1; assay: A647-fractalkine competition FACS, HEK293T human CX3CR1
Excerpt: as §1, §3

human CX3CR1 [12] = molecular target: T1, human CX3CR1; assay: fractalkine competition FACS; remark: listed apart in the source
human CX3CR1 [13] = molecular target: T1, human CX3CR1; assay: cell-based or functional assay; remark: listed apart in the source
cynomolgus CX3CR1 [14] = molecular target: T2, cynomolgus CX3CR1; assay: A647-fractalkine competition FACS, cynomolgus against human CX3CR1
Excerpt: as §1, §3

human CX3CR1 [15] = molecular target: T1, human CX3CR1; assay: cell-based or functional assay; remark: listed apart in the source
human CX3CR1 [16] = molecular target: T1, human CX3CR1; assay: A647-fractalkine competition FACS, HEK293T human CX3CR1; remark: listed apart in the source
Experimental: as §3, with “4. The ratio of the IC50 values on cynomolgus monkey and human CX3CR1 was used to evaluate potential differences in affinity for CX3CR1 in both species.” for “4.”
(§4) Also for the bivalent constructs the cross reactivity towards cynomolgus CX3CR1 was evaluated and compared with the human reactivity. As described earlier, either a binding setup (Table 27) or a ligand competition setup (Table 28) were applied using transient transfected HEK293T cells. Batches of transient transfected cells were matched by their receptor expression level.

cynomolgus CX3CR1 [17] = molecular target: T2, cynomolgus CX3CR1; assay: A647-fractalkine competition FACS, HEK293T cynomolgus CX3CR1
Experimental: as §3, with “4. The ratio of the IC50 values on cynomolgus monkey and human CX3CR1 was used to evaluate potential differences in affinity for CX3CR1 in both species.” for “4.”
as §4

human CX3CR1 [18] = molecular target: T1, human CX3CR1; assay: A647-fractalkine competition FACS, HEK293-huCX3CR1; remark: listed apart in the source
cynomolgus CX3CR1 [19] = molecular target: T2, cynomolgus CX3CR1; assay: A647-fractalkine competition FACS, cynomolgus against human CX3CR1
Experimental: as §3, with “4. The ratio of the IC50 values on cynomolgus monkey and human CX3CR1 was used to evaluate potential differences in affinity for CX3CR1 in both species.” for “4.”
as §4

% block, fractalkine induced chemotaxis (human CX3CR1 [15]) [%] | IC50, fractalkine induced chemotaxis (human CX3CR1 [15]) [nM] | % block (human CX3CR1 [16]) [%] | IC50 (human CX3CR1 [16]) [nM] | % block (cynomolgus CX3CR1 [17]) [%] | IC50 (cynomolgus CX3CR1 [17]) [nM] | % block (human CX3CR1 [18]) [%] | IC50 (human CX3CR1 [18]) [nM] | ratio (cynomolgus/human IC50) (cynomolgus CX3CR1 [19]) | further results | Binder
– | – | – | – | – | – | – | – | – | % block, fractalkine induced chemotaxis (human CX3CR1 [1]): 89%; IC50, fractalkine induced chemotaxis (human CX3CR1 [1]): 200 nM; % block (human CX3CR1 [2]): 100%; IC50 (human CX3CR1 [2]): 8.1 nM; % block (human CX3CR1 [3]): 100%; IC50 (human CX3CR1 [3]): 17 nM; EC50 (human CX3CR1 [4]): 0.8 nM; % block (human CX3CR1 [5]): 100%; IC50 (human CX3CR1 [5]): 4.9 nM; % block (human CX3CR1 [6]): 99% | B1
– | – | – | – | – | – | – | – | – | % block (human CX3CR1 [7]): 101%; IC50 (human CX3CR1 [7]): 2.6 nM; % block (cynomolgus CX3CR1 [8]): 97%; IC50 (cynomolgus CX3CR1 [8]): 19 nM; % block (human CX3CR1 [9]): 98%; IC50 (human CX3CR1 [9]): 2.5 nM; % block (human CX3CR1 [10]): 102%; IC50 (human CX3CR1 [10]): 2.5 nM; % block, fractalkine induced chemotaxis (human CX3CR1 [1]): 87%; IC50, fractalkine induced chemotaxis (human CX3CR1 [1]): 20 nM; % block (human CX3CR1 [11]): 102%; IC50 (human CX3CR1 [11]): 2.5 nM; % block (human CX3CR1 [12]): 98%; IC50 (human CX3CR1 [12]): 2.5 nM; % block, ligand induced chemotaxis (human CX3CR1 [13]): 91%; IC50, ligand induced chemotaxis (human CX3CR1 [13]): 36 nM; ratio (cynomolgus/human IC50) (cynomolgus CX3CR1 [14]): 7.5; % block (human CX3CR1 [5]): 100%; IC50 (human CX3CR1 [5]): 1.5 nM | B2
88 | 2 | 102 | 0.19 | 98 | 0.69 | 102 | 0.19 | 3.67 | – | B3
98 | 0.6 | 102 | 0.03 | 97 | 0.1 | 102 | 0.3 | 3.33 | – | B4
85 | 2 | 100 | 0.29 | 96 | 0.82 | 100 | 0.29 | 2.86 | – | B5
85 | 2 | 102 | 0.22 | 97 | 0.32 | 102 | 0.22 | 1.47 | – | B6
89 | 3 | 99 | 0.31 | 95 | 1.6 | 99 | 0.31 | 5.34 | – | B7

— US20130224224A1 (Boehringer Ingelheim, published 2013)
